Substrate in this series: O=[N+]([O-])c1ccccc1O[C@@H]1O[C@H](CO)[C@H](O)[C@H](O)[C@H]1O
In words: purified protein. The series is classed as biochemical, Bifidobacterium breve. The conditions noted are these: 50 mM sodium phosphate pH 6.5, 30°C.

B1: β-gal I (Bifidobacterium breve DSM 20213 = JCM 1192) (protein)
chain: MQGKAKTIMTNLQSAQQFSQAWLTDPRVFAVNRLAAHSSHKFYDHAPQCGEAMDLKQSLDGQWRVQMVDLADLADNELAEAAFAQPGYDAAGFSPIEVPSALETKGFLNHQYVNQQYPWSGHESPVAPDVPKHNHVALYRHEFSLEPKAAAVLEANKTAADDTAKRRVTLTFQGAATAIAVWLNGAFIGYAEDSFTPSEFDVTDVLRDGVNTLAVACFEFSSASWLEDQDFWRLHGIFRSVELEAQPLVHVNDLRVLADYDHTTGEGSLDVVALVRNAGTAAAVAATVLDAAGNTVWHSKLTAGADAETLTVKANVGKVNPWSAEEPTLYTLQVVATDAAGQVIEAALQRIGFRHFAIEDGLMKLNGKRIVFKGVDRHEFDARTGRTIAEADMIEDIHSFKRLNINAVRTSHYPNETRWYELCDEYGIYVLDETNLETHGSWTDPGDVFQPARAIPGSKDEWRAACVDRTASMVRRDYNHPSVVIWSLGNEAFGGDVFYSMRDFVHENDPFRPVHYEGTFNDPEFSAATDIMSRMYAKPDEIVKLYLGEDGKKPYISCEYSHSMGNSTGGLHLYTELERYPLYQGGFIWDYVDQALWQDCGDGTERLAYGGDFEDRPNDYEFSGDGVMFADRTPSPKAQEVKQLYANVKLVPDESGVTITNDNLFVSTASSLFTARVLVDGVERWHANYRFDVPAGETVREPIAFPKVTDLVALSGSAEVTYEVDQRLAEATDWAPAGYELTFGQYVAAVSFDDGAADAVVAGDAEVAADGFNAGIHTDFGEVLLSKTQGGMVSFKRDGREMVIRRPNLTTFRALTDNDRGNGSGFERAQWMAAGRYARVTDTSVEETADGKGLKATYSYELADAKHTPVTVHYEVDAALRVHLTVEYPGEADAATLPAFGLEWILPKQYDRLRFYGLGPEETYADRLHGAKLGVFSRTAAEDCAPYLLPQETGNHEQVRWAEITDEYGHGMRVTAAGGTRFATSLLPYSSLMLEDALHQNELPKPRHTFLRLLAAQMGVGGDDTWGAPVHDEFQVPADQPLKLDVTLELI
notes: full length, C-terminal His6 tag kept (pET-21a), E. coli T7 Express with GroEL/GroES, IMAC; calculated 116,127 Da; homodimer 220 kDa; GH2; N-terminus from primer MQGKAKT, C-terminus before tag DVTLELI
Turning to B1, the Michaelis-Menten constant (Km) worked out at 1300 ± 100 µM, the Vmax was determined as 486 µmol/min/mg, the kcat was 939 ± 7 s⁻¹ and the kcat/Km was determined as 722000 ± 66000 M⁻¹ s⁻¹.

B2: β-gal II (Bifidobacterium breve DSM 20213 = JCM 1192) (protein)
chain: MNTTDDQLKNGDPIVSPSMPTTAWLTDPRVYAVHRLDAHSDHACWSHAPVNGEGSDLGQSLDGEWRVRVETAPTGRFPDGTSDVSPLFAASDFDDSSFSRVQVPSHLETAGLLAPQYVNVQYPWDGHEDPEAPAIPEHGHVAVYRREFDADGEVAQAVREGHPVTLTFQGAATAIYVWLNGSFVGYAEDSFTPSEFDVTDAIKMEGNVLAVACYEYSSASWLEDQDFWRLHGLFRSVELNARPSAHVADIHADTDWDPATSRGSLSLDILVDGTPNAATADLVLRDKNGTTVWHTSTEATGTLHAEAEIDGASPWSAERPDLYTLSIALLDADGRILEIARTRIGFRRVSIEDGILKLNGKRLVFRGVNRHEFDCRRGRAITEEDMLWDIRFMKRHNINAVRTSHYPNQSRWYELCDEYGIYLIDETNLETHGSWNSPGDIPVGTSVPGDDEAWLGACIDRLDSMIMRDRNHPSVLIWSLGNESYAGEVLKAMSAHAHRLDPGRPVHYEGVNWNHAYDEISDFESRMYAKPAEIRDWLEHGDERGEASKPFVSCEYMHAMGNSCGGLSEFIDLERYERYSGGFIWDYIDQGLVQRLPDGCERLSVGGDWGDRPTDYEFVGNGIVFADRTPSPKAQEVKQLYSPVKLTPDGHGVTIENRNLFASTDGYVFAARLLEDGREIWHADYRFDVAAGDTQHHDIAFPDIDSDEGTREVTYEVDLLLAEATAWAPAGYELAFGQLTDTLNPEGDITGNNQDDGRATVTLSRWNAGIRRDDEEILMSRTQGGIVSWKRNGREMVIRRPEIVTFRPLTDNDRGNRSGYDRAAWFAAGRYAVVTDTSITQSDDGGLTAAYRYELADPDHTPVSVTYRVTPGMRMQLTVEYPGNAAGAASLPAFGIEWELPGEYQHLRYYGTGPEETYRDRKQGGKLGIWDTTSEASTAPYLMVQETGSHEDVRWLEATDIQGHGLRVTQRGDRHFTASLLPWNTYTIEAARRHEDLPAPRHNYLRLLAAQMGVGGDDSWGAPVHTAYQLPADRPLTLDVNLELI
notes: full length, C-terminal His6 tag kept (pET-21a), E. coli T7 Express with GroEL/GroES, IMAC; calculated 116,594 Da; homodimer 211 kDa; GH2; N-terminus from primer MNTTDDQ, C-terminus before tag DVNLELI
Consider B2, for which the Km was 670 ± 70 µM, the Vmax was 188 µmol/min/mg, the kcat turned out to be 364 ± 6 s⁻¹ and the specificity constant (kcat/Km) worked out at 543000 ± 65000 M⁻¹ s⁻¹.

Usually Km stands for the substrate concentration at which the rate is half of its maximum. Usually Vmax stands for the rate approached at saturating substrate. For orientation: kcat means the number of substrate molecules converted per active site and unit of time at saturation. Broadly, the kcat/Km is the turnover number divided by the Michaelis constant.

(Values after PMC4121272, “Two β-Galactosidases from the Human Isolate Bifidobacterium breve DSM 20213: Molecular Cloning and Expression, Biochemical Characterization and Synthesis of Galacto-Oligosaccharides” (PLoS ONE, 2014).)
